Our source for the Kd values is article PMC10786891, “Massively parallel profiling of RNA-targeting CRISPR-Cas13d”.

To fix the notation:
T1: EsCas13d, nuclease-dead (Eubacterium siraeum, UniProt B0MS50, R295A;H300A;R849A;H854A)
T1 sequence: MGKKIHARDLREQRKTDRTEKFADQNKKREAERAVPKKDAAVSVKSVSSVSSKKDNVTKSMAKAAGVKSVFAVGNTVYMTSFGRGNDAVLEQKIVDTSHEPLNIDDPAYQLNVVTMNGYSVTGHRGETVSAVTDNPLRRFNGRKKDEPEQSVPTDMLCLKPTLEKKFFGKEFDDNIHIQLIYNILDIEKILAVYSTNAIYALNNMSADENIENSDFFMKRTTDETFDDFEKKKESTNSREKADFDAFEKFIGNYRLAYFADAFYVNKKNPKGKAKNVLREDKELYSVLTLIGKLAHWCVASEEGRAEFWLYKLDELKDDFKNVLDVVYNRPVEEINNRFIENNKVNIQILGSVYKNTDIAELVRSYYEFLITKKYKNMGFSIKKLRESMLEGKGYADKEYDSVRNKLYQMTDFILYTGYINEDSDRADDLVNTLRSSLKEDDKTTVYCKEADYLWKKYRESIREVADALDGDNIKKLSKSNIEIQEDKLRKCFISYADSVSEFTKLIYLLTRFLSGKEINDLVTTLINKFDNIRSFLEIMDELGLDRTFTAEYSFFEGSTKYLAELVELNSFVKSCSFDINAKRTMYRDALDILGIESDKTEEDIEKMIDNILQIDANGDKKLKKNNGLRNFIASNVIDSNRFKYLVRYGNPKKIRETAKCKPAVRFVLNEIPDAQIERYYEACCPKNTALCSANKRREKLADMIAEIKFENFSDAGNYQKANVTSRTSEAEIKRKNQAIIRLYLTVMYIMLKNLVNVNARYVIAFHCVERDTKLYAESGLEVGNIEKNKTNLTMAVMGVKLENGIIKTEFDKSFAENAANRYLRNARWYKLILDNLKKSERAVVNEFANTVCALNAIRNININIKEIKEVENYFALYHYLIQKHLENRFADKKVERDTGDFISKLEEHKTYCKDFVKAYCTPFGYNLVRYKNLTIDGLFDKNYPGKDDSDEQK

B1: target 1 del7,del22 (mixed)
RNA 1: CACCCGUGCAAAAAUGCAGGGGUCUAAAACUGAGCGGAUAACCUCUCUAUGG
RNA 2: GGGAAUGGAUCCACAUCUACGAAUUCGUACAUAGAGAGGUUAUCGCUCACCGAGAUCGGAAGAGCACACGU
B2: target 1 insG 3' of 10,insU 3' of 7 (mixed)
RNA 1: CACCCGUGCAAAAAUGCAGGGGUCUAAAACUGAGCGGAUAACCUCUCUAUGG
RNA 2: GGGAAUGGAUCCACAUCUACGAAUUCGUACCAUAGAGAGGUUGAUCUCGCUCACCGAGAUCGGAAGAGCACACGU
B3: target 1 insU 3' of 21,insC 3' of 10 (mixed)
RNA 1: CACCCGUGCAAAAAUGCAGGGGUCUAAAACUGAGCGGAUAACCUCUCUAUGG
RNA 2: GGGAAUGGAUCCACAUCUACGAAUUCGUACCUAUAGAGAGGUUCAUCCGCUCACCGAGAUCGGAAGAGCACACGU
B4: target 1 insA 3' of 22,insU 3' of 13 (mixed)
RNA 1: CACCCGUGCAAAAAUGCAGGGGUCUAAAACUGAGCGGAUAACCUCUCUAUGG
RNA 2: GGGAAUGGAUCCACAUCUACGAAUUCGUACACAUAGAGAGUGUUAUCCGCUCACCGAGAUCGGAAGAGCACACGU
B5: target 1 insA 3' of 12,insG 3' of 2 (mixed)
RNA 1: CACCCGUGCAAAAAUGCAGGGGUCUAAAACUGAGCGGAUAACCUCUCUAUGG
RNA 2: GGGAAUGGAUCCACAUCUACGAAUUCGUACCAUAGAGAGGAUUAUCCGCUCGACCGAGAUCGGAAGAGCACACGU
B6: target 1 insC 3' of 20,insC 3' of 9 (mixed)
RNA 1: CACCCGUGCAAAAAUGCAGGGGUCUAAAACUGAGCGGAUAACCUCUCUAUGG
RNA 2: GGGAAUGGAUCCACAUCUACGAAUUCGUACCACUAGAGAGGUUACUCCGCUCACCGAGAUCGGAAGAGCACACGU
B7: target 1 insA 3' of 12,insA 3' of 7 (mixed)
RNA 1: CACCCGUGCAAAAAUGCAGGGGUCUAAAACUGAGCGGAUAACCUCUCUAUGG
RNA 2: GGGAAUGGAUCCACAUCUACGAAUUCGUACCAUAGAGAGGAUUAUCACGCUCACCGAGAUCGGAAGAGCACACGU
B8: target 1 insA 3' of 6,insC 3' of 5 (mixed)
RNA 1: CACCCGUGCAAAAAUGCAGGGGUCUAAAACUGAGCGGAUAACCUCUCUAUGG
RNA 2: GGGAAUGGAUCCACAUCUACGAAUUCGUACCAUAGAGAGGUUAUCCAGCCUCACCGAGAUCGGAAGAGCACACGU
B9: target 1 insU 3' of 2,insG 3' of 2 (mixed)
RNA 1: CACCCGUGCAAAAAUGCAGGGGUCUAAAACUGAGCGGAUAACCUCUCUAUGG
RNA 2: GGGAAUGGAUCCACAUCUACGAAUUCGUACCAUAGAGAGGUUAUCCGCUCUGACCGAGAUCGGAAGAGCACACGU
B10: target 1 insA 3' of 8,insG 3' of 4 (mixed)
RNA 1: CACCCGUGCAAAAAUGCAGGGGUCUAAAACUGAGCGGAUAACCUCUCUAUGG
RNA 2: GGGAAUGGAUCCACAUCUACGAAUUCGUACCAUAGAGAGGUUAUACCGCGUCACCGAGAUCGGAAGAGCACACGU
B11: target 1 insU 3' of 20,insA 3' of 7 (mixed)
RNA 1: CACCCGUGCAAAAAUGCAGGGGUCUAAAACUGAGCGGAUAACCUCUCUAUGG
RNA 2: GGGAAUGGAUCCACAUCUACGAAUUCGUACCAUUAGAGAGGUUAUCACGCUCACCGAGAUCGGAAGAGCACACGU
B12: target 1 insA 3' of 19,insU 3' of 5 (mixed)
RNA 1: CACCCGUGCAAAAAUGCAGGGGUCUAAAACUGAGCGGAUAACCUCUCUAUGG
RNA 2: GGGAAUGGAUCCACAUCUACGAAUUCGUACCAUAAGAGAGGUUAUCCGUCUCACCGAGAUCGGAAGAGCACACGU
B13: target 1 A9U,G13A (mixed)
RNA 1: CACCCGUGCAAAAAUGCAGGGGUCUAAAACUGAGCGGAUAACCUCUCUAUGG
RNA 2: GGGAAUGGAUCCACAUCUACGAAUUCGUACCAUAGAGAAGUUUUCCGCUCACCGAGAUCGGAAGAGCACACGU
B14: target 1 C2G,C22A (mixed)
RNA 1: CACCCGUGCAAAAAUGCAGGGGUCUAAAACUGAGCGGAUAACCUCUCUAUGG
RNA 2: GGGAAUGGAUCCACAUCUACGAAUUCGUAACAUAGAGAGGUUAUCCGCUGACCGAGAUCGGAAGAGCACACGU
B15: target 1 insU 3' of 22,insU 3' of 9 (mixed)
RNA 1: CACCCGUGCAAAAAUGCAGGGGUCUAAAACUGAGCGGAUAACCUCUCUAUGG
RNA 2: GGGAAUGGAUCCACAUCUACGAAUUCGUACUCAUAGAGAGGUUAUUCCGCUCACCGAGAUCGGAAGAGCACACGU
B16: target 1 insC 3' of 19 (mixed)
RNA 1: CACCCGUGCAAAAAUGCAGGGGUCUAAAACUGAGCGGAUAACCUCUCUAUGG
RNA 2: GGGAAUGGAUCCACAUCUACGAAUUCGUACCAUCAGAGAGGUUAUCCGCUCACCGAGAUCGGAAGAGCACACGU
B17: target 1 U8A,C21U (mixed)
RNA 1: CACCCGUGCAAAAAUGCAGGGGUCUAAAACUGAGCGGAUAACCUCUCUAUGG
RNA 2: GGGAAUGGAUCCACAUCUACGAAUUCGUACUAUAGAGAGGUUAACCGCUCACCGAGAUCGGAAGAGCACACGU
B18: target 1 insC 3' of 18,insA 3' of 8 (mixed)
RNA 1: CACCCGUGCAAAAAUGCAGGGGUCUAAAACUGAGCGGAUAACCUCUCUAUGG
RNA 2: GGGAAUGGAUCCACAUCUACGAAUUCGUACCAUACGAGAGGUUAUACCGCUCACCGAGAUCGGAAGAGCACACGU
B19: target 1 insC 3' of 18 (mixed)
RNA 1: CACCCGUGCAAAAAUGCAGGGGUCUAAAACUGAGCGGAUAACCUCUCUAUGG
RNA 2: GGGAAUGGAUCCACAUCUACGAAUUCGUACCAUACGAGAGGUUAUCCGCUCACCGAGAUCGGAAGAGCACACGU
B20: target 1 insG 3' of 16,insC 3' of 9 (mixed)
RNA 1: CACCCGUGCAAAAAUGCAGGGGUCUAAAACUGAGCGGAUAACCUCUCUAUGG
RNA 2: GGGAAUGGAUCCACAUCUACGAAUUCGUACCAUAGAGGAGGUUACUCCGCUCACCGAGAUCGGAAGAGCACACGU
B21: target 1 insC 3' of 12,insG 3' of 6 (mixed)
RNA 1: CACCCGUGCAAAAAUGCAGGGGUCUAAAACUGAGCGGAUAACCUCUCUAUGG
RNA 2: GGGAAUGGAUCCACAUCUACGAAUUCGUACCAUAGAGAGGCUUAUCCGGCUCACCGAGAUCGGAAGAGCACACGU
B22: target 1 C7U,A14C (mixed)
RNA 1: CACCCGUGCAAAAAUGCAGGGGUCUAAAACUGAGCGGAUAACCUCUCUAUGG
RNA 2: GGGAAUGGAUCCACAUCUACGAAUUCGUACCAUAGAGCGGUUAUUCGCUCACCGAGAUCGGAAGAGCACACGU
B23: target 1 G12A,G17C (mixed)
RNA 1: CACCCGUGCAAAAAUGCAGGGGUCUAAAACUGAGCGGAUAACCUCUCUAUGG
RNA 2: GGGAAUGGAUCCACAUCUACGAAUUCGUACCAUACAGAGAUUAUCCGCUCACCGAGAUCGGAAGAGCACACGU
B24: target 1 insC 3' of 19,insC 3' of 18 (mixed)
RNA 1: CACCCGUGCAAAAAUGCAGGGGUCUAAAACUGAGCGGAUAACCUCUCUAUGG
RNA 2: GGGAAUGGAUCCACAUCUACGAAUUCGUACCAUCACGAGAGGUUAUCCGCUCACCGAGAUCGGAAGAGCACACGU
B25: target 1 insG 3' of 11,insC 3' of 8 (mixed)
RNA 1: CACCCGUGCAAAAAUGCAGGGGUCUAAAACUGAGCGGAUAACCUCUCUAUGG
RNA 2: GGGAAUGGAUCCACAUCUACGAAUUCGUACCAUAGAGAGGUGUAUCCCGCUCACCGAGAUCGGAAGAGCACACGU
B26: target 1 insC 3' of 22,insA 3' of 17 (mixed)
RNA 1: CACCCGUGCAAAAAUGCAGGGGUCUAAAACUGAGCGGAUAACCUCUCUAUGG
RNA 2: GGGAAUGGAUCCACAUCUACGAAUUCGUACCCAUAGAAGAGGUUAUCCGCUCACCGAGAUCGGAAGAGCACACGU
B27: target 1 C2A,G12U (mixed)
RNA 1: CACCCGUGCAAAAAUGCAGGGGUCUAAAACUGAGCGGAUAACCUCUCUAUGG
RNA 2: GGGAAUGGAUCCACAUCUACGAAUUCGUACCAUAGAGAGUUUAUCCGCUAACCGAGAUCGGAAGAGCACACGU

For this series, the target named is T1, EsCas13d, nuclease-dead. Put plainly: crRNA (strand 1, pre-loaded); Mg2+; 40 mM Tris-HCl pH 7.5, 150 mM NaCl, 6 mM MgCl2, 1 mM DTT, 0.1% Tween-20, 0.2 mg/ml BSA; 25 C; 10 min per concentration, then washed. The conditions noted are these: tags: His6-TwinStrep-SUMO cleaved; N-terminal SNAP kept (SNAP-Surface 488); label: 3' end held by stalled T7 RNA polymerase.
Molecule B1 came in with a Kd of 22.6 ± 1.3 nM.

The molecule B2 had a Kd of 21.8 ± 0.9 nM.

Molecule B3 registered a Kd of 51 ± 9 nM.

With B4, binding was characterised by a dissociation constant (Kd) of 20.6 ± 2.9 nM.

Consider B5, for which the Kd came to 30 ± 4 nM.

B6 showed a Kd of 8.9 ± 0.6 nM.

On to B7, for which the Kd worked out at 25.9 ± 2.4 nM.

As for B8, the Kd was 23.9 ± 1.9 nM.

As to B9, the Kd amounted to 8.6 ± 0.6 nM.

Molecule B10 displayed a Kd of 7.7 ± 0.5 nM.

As for B11, the Kd was 9.9 ± 0.6 nM. This Kd and that of the molecule before are within 1.5-fold of each other.

B12: the dissociation constant Kd was 41 ± 6 nM.

For the molecule B13, the equilibrium dissociation constant (Kd) was 12.9 ± 0.9 nM.

The molecule B14 showed a Kd of 16.9 ± 1.8 nM.

For B15, the Kd was around 60 nM.

Turning to B16, binding was put at a Kd of 26.9 ± 2.2 nM.

In turn, B17 came in with a Kd of 9.1 ± 0.4 nM.

In turn, B18 returned a Kd of 69 ± 10 nM.

As for B19, the affinity, expressed as Kd, was 30.3 ± 1.9 nM.

In turn, B20 came in with a Kd of 23.4 ± 1.1 nM.

In the case of B21, binding was characterised by a dissociation constant (Kd) of 9.1 ± 1.6 nM.

Take B22: the dissociation constant (Kd) is 30 ± 4 nM.

B23 registered a Kd of 34 ± 8 nM.

Regarding B24, the affinity, expressed as Kd, was 45.8 ± 3.4 nM.

Molecule B25 gave a Kd of 39 ± 6 nM.

B26 gave a Kd of 33 ± 5 nM.

In turn, B27 showed a Kd of 9.2 ± 0.4 nM.

Broadly, the Kd is a measure of binding affinity in units of concentration. A high value points to weaker binding.
